Assay results taken from patent publication US7056679.
One block for each binder: values may come before it.

Molecular target: lactate dehydrogenase (LDH)
Assay: phage ELISA, 405 nm; LDH coated

LDH (OD): 0.9 OD
Binder: WAGSTDLWQLWSLWVKPELRAAAGAPVPYPDPLEPRP (peptide, not shown: large carriers) [DGI-2-20F-3-B7]

LDH (OD): 1.1 OD
Binder: TANGHRYGGCGLWCKWMSGMAAAGAPVPYPDPLEPRP (peptide, not shown: large carriers) [DGI-2-20R-4-E2]

LDH (OD): 1.1 OD
Binder: FSSTGILLRSGRATAVGHVTAAAGAPVPYPDPLEPRP (peptide, not shown: large carriers) [DGI-2-20F-3-A6]

LDH (OD): 0.8 OD
B1: DGI-2-40F-3-B122 (peptide, not shown: large carriers)
peptide: HSGNRQSGSRRTHLLNIFCSSDTFVFPGWSAYLSRVCPGDAAAGAPVPYPDPLEPRP

LDH (OD): 1.1 OD
Binder: MGSLGPFGNINSLASGIGSVRNRPLLPLHGSPAAAGAPVPYPDPLEPRP (peptide, not shown: large carriers) [DGI-2-40F-3-D72]

LDH (OD): 1.2 OD
Binder: LSHPMSPLRAASQMALTQGVAAAGAPVPYPDPLEPRP (peptide, not shown: large carriers) [DGI-2-20R-4-H7]

LDH (OD): 0.8 OD
B2: DGI-2-40F-3-B116 (peptide, not shown: large carriers)
peptide: GVVRAQQGLRYELQGDRYRLRRTQWLTVTYCSPSWAFAGCAAAGAPVPYPDPLEPRP

LDH (OD): 1 OD
B3: DGI-2-40F-3-D6 (peptide, not shown: large carriers)
peptide: GLEPVPFQTDKRIAMGWTREWLVNGYGAAHRRDARMQSGHAAAGAPVPYPDPLEPRP

LDH (OD): 1.1 OD
Binder: LSVFRPGQFPHVGARGVSRTAAAGAPVPYPDPLEPRP (peptide, not shown: large carriers) [DGI-2-20R-4-G32]

LDH (OD): 0.8 OD
Binder: RFWSVSYQGGRVMCREWGYCLPIAAAGAPVPYPDPLEPRP (peptide, not shown: large carriers) [DGI-2-40F-3-C92]

LDH (OD): 1.2 OD
Binder: LTWGPQFGSLQVYSRHRGLPAAAGAPVPYPDPLEPRP (peptide, not shown: large carriers) [DGI-2-20R-4-E4]

LDH (OD): 1.1 OD
Binder: PAMGHCMQVLGPVLEGRSRDQVGRAAAGAPVPYPDPLEPRP (peptide, not shown: large carriers) [DGI-2-20R-4-G6]

LDH (OD): 1 OD
Binder: SLSLYWDAQVGCEVFWGYCVAAAGAPVPYPDPLEPRP (peptide, not shown: large carriers) [DGI-2-20R-3-C10]

LDH (OD): 1 OD
Binder: YDQVWNSLLAAVLGGQELVNAAAGAPVPYPDPLEPRP (peptide, not shown: large carriers) [DGI-2-20F-3-D112]

LDH (OD): 1 OD
B4: DGI-2-40F-4-F6 (peptide, not shown: large carriers)
peptide: SYRNFAMQSSLQVRRGSVVEDGTCWWEGVRCYSGAAAGAPVPYPDPLEPRP

LDH (OD): 1.1 OD
Binder: VAFGEQIRVAMAGTLWQRWRAAAGAPVPYPDPLEPRP (peptide, not shown: large carriers) [DGI-2-20R-3-D5]

LDH (OD): 0.9 OD
Binder: RNWLDKDCVWMGDCGARAGEAAAGAPVPYPDPLEPRP (peptide, not shown: large carriers) [DGI-2-20F-4-E3]

LDH (OD): 1 OD
Binder: TSCQVMFLAGQHLLSRVPRLAAAGAPVPYPDPLEPRP (peptide, not shown: large carriers) [DGL-2-20R-3-B6]

LDH (OD): 1.1 OD
Binder: GMWIRPNGHMFLQGGYTARSAAAGAPVPYPDPLEPRP (peptide, not shown: large carriers) [DGI-2-20R-4-G8]

LDH (OD): 1 OD
B5: DGI-2-40F-3-B10 (peptide, not shown: large carriers)
peptide: MQAASTLSTYMGAIRMGYPILHWDRGGVQRVDPGLYRGRVAAAGAPVPYPDPLEPRP

LDH (OD): 1.1 OD
Binder: ACSVGTALVFPQRWWYLGRSAAAGAPVPYPDPLEPRP (peptide, not shown: large carriers) [DGL-2-20R-3-D6]

LDH (OD): 1 OD
Binder: SWRLWVSGELQGDRRKGLRGAAAGAPVPYPDPLEPRP (peptide, not shown: large carriers) [DGI-2-20R-3-B7]

LDH (OD): 1.1 OD
Binder: DAGIGWVGSMWFPPGCIGACAAAGAPVPYPDPLEPRP (peptide, not shown: large carriers) [DGI-2-20R-4-E82]

LDH (OD): 1.3 OD
Binder: LHFGSVMGWRPPGSLWSRPFGQVHPRSWSGSAAAGAPVPYPDPLEPRP (peptide, not shown: large carriers) [DGI-2-40F-3-D11]

LDH (OD): 0.9 OD
Binder: LSLLSVVVRSMGASAPQRQVAAAGAPVPYPDPLEPRP (peptide, not shown: large carriers) [DGI-2-20F-3-A7]

LDH (OD): 1 OD
Binder: LQIVRPAGWKMPGQVGYYIGAAAGAPVPYPDPLEPRP (peptide, not shown: large carriers) [DGI-2-20R-3-A9]

LDH (OD): 0.9 OD
B6: DGL-2-40F-3-D10 (peptide, not shown: large carriers)
peptide: TLVTEGNKGSVKAHKDIGVWQLWWDWLSVTDSETVGRVSHAAAGAPVPYPDPLEPRP

LDH (OD): 1 OD
Binder: RWSLPAYLCRFVSQASCNSRAAAGAPVPYPDPLEPRP (peptide, not shown: large carriers) [DGI-2-20R-3-C12]

LDH (OD): 1 OD
Binder: GSVLERGCLEFSGFCFSLGHAAAGAPVPYPDPLEPRP (peptide, not shown: large carriers) [DGI-2-20F-3-C1]

LDH (OD): 1 OD
Binder: GLRACDTYLGFCVGARRIDDAAAGAPVPYPDPLEPRP (peptide, not shown: large carriers) [DGI-2-20F-3-B102]

LDH (OD): 0.8 OD
B7: DGI-2-40F-3-C6 (peptide, not shown: large carriers)
peptide: QMFSKGNWLAHPEGGVALGLSRESQLFRSCREFGYCMGPMAAAGAPVPYPDPLEPRP

LDH (OD): 1 OD
Binder: LTPYSLARSWLSGRPSTGATAAAGAPVPYPDPLEPRP (peptide, not shown: large carriers) [DGI-2-20F-3-C12]

LDH (OD): 0.9 OD
B8: DGI-2-40F-3-B11 (peptide, not shown: large carriers)
peptide: LAPMFLQNQVRTWAASRRPLPAGPSNARCETGSLSPWVPCAAAGAPVPYPDPLEPRP

LDH (OD): 1 OD
B9: DGI-2-40F-3-D12 (peptide, not shown: large carriers)
peptide: QGSAHVVRPPGVYDVPWKVGMFFHPQNWPNSWGRAYFRSGAAAGAPVPYPDPLEPRP

LDH (OD): 1 OD
Binder: RWSICRGLQYSIPGCAVEDLSDVMAAAAGAPVPYPDPLEPRP (peptide, not shown: large carriers) [DGI-2-20C-4-H316]

LDH (OD): 1.3 OD
Binder: MSTLQGPGHLFQMLRRASLGAAAGAPVPYPDPLEPRP (peptide, not shown: large carriers) [DGI-2-20R-4-H12]

LDH (OD): 1 OD
Binder: TPDRCLIYSSIQCLLEYSARRGSADAAAGAPVPYPDPLEPRP (peptide, not shown: large carriers) [DGI-2-20C-3-C65]

LDH (OD): 0.9 OD
B10: DGI-2-40F-4-F12 (peptide, not shown: large carriers)
peptide: GLYRRAGDASVGFSRWGRFDCQVYFSVECLLGSSWGGYSAAAGAPVPYPDPLEPRP

LDH (OD): 1 OD
B11: DGI-2-40F-3-D7 (peptide, not shown: large carriers)
peptide: ALRSLGSGGFGWQAGRASPQGMTHFPYFGWSGMPTARVRPAAAGAPVPYPDPLEPRP

LDH (OD): 1 OD
Binder: GNKCFPPHDLFWDPCDQLQSAAAGAPVPYPDPLEPRP (peptide, not shown: large carriers) [DGI-2-20R-4-F6]
